No end group written: not given here.
T1: mouse GLP-1 receptor (mouse, UniProt O35659 22-463)
T1 sequence (looked up): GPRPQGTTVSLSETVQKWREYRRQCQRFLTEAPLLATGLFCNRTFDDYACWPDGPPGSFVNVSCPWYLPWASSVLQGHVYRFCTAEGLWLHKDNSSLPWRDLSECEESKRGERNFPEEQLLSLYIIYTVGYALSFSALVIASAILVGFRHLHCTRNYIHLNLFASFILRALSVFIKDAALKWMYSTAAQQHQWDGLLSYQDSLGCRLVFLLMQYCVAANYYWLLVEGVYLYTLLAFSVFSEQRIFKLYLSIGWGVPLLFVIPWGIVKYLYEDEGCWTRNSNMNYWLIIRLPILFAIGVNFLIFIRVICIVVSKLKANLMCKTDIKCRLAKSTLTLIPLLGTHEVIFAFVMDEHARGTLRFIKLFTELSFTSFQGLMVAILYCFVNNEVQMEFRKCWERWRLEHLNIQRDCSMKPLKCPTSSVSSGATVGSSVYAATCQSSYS


The binders below were run against T2, human GLP-1 receptor (human, UniProt P43220 24-463) (assay: cell-based or functional assay).
SHAEGTFTSDVSSYLEGQAAKEFIAWLVKGR (ends and bridges not checked, Not pegylated; also called S-CLP-1) [S-GLP-1 (SEQ ID NO: 250)] was tested, and the EC50 human was 0.4 nM. Work on MQHAEGTFTSDVSSYLEGQAAKEFIAWLVKGR (ends and bridges not checked, Not pegylated) [MQ-GLP1 (SEQ ID NO: 253)] yielded an EC50 human of 0.5 nM. With MLHAEGTFTSDVSSYLEGQAAKEFIAWLVKGR (ends and bridges not checked, Not pegylated) [ML-GLP1 (SEQ ID NO: 262)] the EC50 human was 0.7 nM. Binder MDHAEGTFTSDVSSYLEGQAAKEFIAWLVKGR (Not pegylated) [MD-GLP1 (SEQ ID NO: 261)] has an EC50 human of 0.3 nM. In the case of MWHAEGTFTSDVSSYLEGQAAKEFIAWLVKGR (ends and bridges not checked, Not pegylated) [MW-GLP1 (SEQ ID NO: 265)], the EC50 human is reported as 0.8 nM. MRHAEGTFTSDVSSYLEGQAAKEFIAWLVKGR (ends and bridges not checked, Not pegylated) [MR-GLP1 (SEQ ID NO: 254)] showed an EC50 human of 8 nM. For MMHAEGTFTSDVSSYLEGQAAKEFIAWLVKGR (not fully specified; ends and bridges not checked, Not pegylated) [MM-GLP1 (SEQ ID NO: 267)], the EC50 human was 0.5 nM. MHHAEGTFTSDVSSYLEGQAAKEFIAWLVKGR (ends and bridges not checked, Not pegylated) [MH-GLP1 (SEQ ID NO: 257)] was tested, and the EC50 human was 2 nM. MEHAEGTFTSDVSSYLEGQAAKEFIAWLVKGR (Not pegylated) [ME-GLP1 (SEQ ID NO: 264)] was tested, and the EC50 human was 1 nM. With MIHAEGTFTSDVSSYLEGQAAKEFIAWLVKGR (not fully specified; ends and bridges not checked, Not pegylated) [MI-GLP1 (SEQ ID NO: 260)] the EC50 human was 0.6 nM. In the case of MYHAEGTFTSDVSSYLEGQAAKEFIAWLVKGR (ends and bridges not checked, Not pegylated) [MY-GLP1 (SEQ ID NO: 259)], the EC50 human is reported as 0.4 nM. Work on MKHAEGTFTSDVSSYLEGQAAKEFIAWLVKGR (not fully specified; ends and bridges not checked, Not pegylated) [MK-GLP1 (SEQ ID NO: 255)] yielded an EC50 human of 4 nM. MNHAEGTFTSDVSSYLEGQAAKEFIAWLVKGR (ends and bridges not checked, Not pegylated) [MN-GLP1 (SEQ ID NO: 263)] gave an EC50 human of 0.3 nM. MFHAEGTFTSDVSSYLEGQAAKEFIAWLVKGR (ends and bridges not checked, Not pegylated) [MF-GLP1 (SEQ ID NO: 266)] was tested, and the EC50 human was 1 nM. Work on MHHHAEGTFTSDVSSYLEGQAAKEFIAWLVKGR (ends and bridges not checked, Not pegylated) [MHH-GLP1 (SEQ ID NO: 258)] yielded an EC50 human of 1 nM.

These binders were tested against T1, mouse GLP-1 receptor (assay: cell-based or functional assay).
For SHAEGTFTSDVSSYLEGQAAKEFIAWLVKGR (ends and bridges not checked, Not pegylated; also called S-CLP-1) [S-GLP-1 (SEQ ID NO: 250)], the EC50 mouse was 2 nM. Binder MQHAEGTFTSDVSSYLEGQAAKEFIAWLVKGR (ends and bridges not checked, Not pegylated) [MQ-GLP1 (SEQ ID NO: 253)] has an EC50 mouse of 3 nM. Binder MLHAEGTFTSDVSSYLEGQAAKEFIAWLVKGR (ends and bridges not checked, Not pegylated) [ML-GLP1 (SEQ ID NO: 262)] has an EC50 mouse of 6 nM. MDHAEGTFTSDVSSYLEGQAAKEFIAWLVKGR (Not pegylated) [MD-GLP1 (SEQ ID NO: 261)] was tested, and the EC50 mouse was 2 nM. MWHAEGTFTSDVSSYLEGQAAKEFIAWLVKGR (ends and bridges not checked, Not pegylated) [MW-GLP1 (SEQ ID NO: 265)] was tested, and the EC50 mouse was 5 nM. MRHAEGTFTSDVSSYLEGQAAKEFIAWLVKGR (ends and bridges not checked, Not pegylated) [MR-GLP1 (SEQ ID NO: 254)] gave an EC50 mouse of 41 nM. Work on MMHAEGTFTSDVSSYLEGQAAKEFIAWLVKGR (not fully specified; ends and bridges not checked, Not pegylated) [MM-GLP1 (SEQ ID NO: 267)] yielded an EC50 mouse of 3 nM. MHHAEGTFTSDVSSYLEGQAAKEFIAWLVKGR (ends and bridges not checked, Not pegylated) [MH-GLP1 (SEQ ID NO: 257)] gave an EC50 mouse of 11 nM. MEHAEGTFTSDVSSYLEGQAAKEFIAWLVKGR (Not pegylated) [ME-GLP1 (SEQ ID NO: 264)] showed an EC50 mouse of 4 nM. Work on MIHAEGTFTSDVSSYLEGQAAKEFIAWLVKGR (not fully specified; ends and bridges not checked, Not pegylated) [MI-GLP1 (SEQ ID NO: 260)] yielded an EC50 mouse of 6 nM. MYHAEGTFTSDVSSYLEGQAAKEFIAWLVKGR (ends and bridges not checked, Not pegylated) [MY-GLP1 (SEQ ID NO: 259)] showed an EC50 mouse of 1 nM. In the case of MKHAEGTFTSDVSSYLEGQAAKEFIAWLVKGR (not fully specified; ends and bridges not checked, Not pegylated) [MK-GLP1 (SEQ ID NO: 255)], the EC50 mouse is reported as 12 nM. MNHAEGTFTSDVSSYLEGQAAKEFIAWLVKGR (ends and bridges not checked, Not pegylated) [MN-GLP1 (SEQ ID NO: 263)] gave an EC50 mouse of 2 nM. With MFHAEGTFTSDVSSYLEGQAAKEFIAWLVKGR (ends and bridges not checked, Not pegylated) [MF-GLP1 (SEQ ID NO: 266)] the EC50 mouse was 6 nM. MHHHAEGTFTSDVSSYLEGQAAKEFIAWLVKGR (ends and bridges not checked, Not pegylated) [MHH-GLP1 (SEQ ID NO: 258)] showed an EC50 mouse of 5 nM.

The binders below were run against T2, human GLP-1 receptor (assay: 125I-GLP-1 displacement, membranes of CHOK1 cells expressing human GLP-1 receptor).
Method: Membrane Preparation. […] Cells were sedimented at 1500 rpm for 10 minutes. The resulting pellets were homogenized in 15 mls of ice cold sucrose buffer (25 mM Tris-HCl, 0.32 M Sucrose, 0.25 g/L, sodium azide, pH 7.4) with a motorized, glass fitted, Teflon homogenizer. The homogenate was centrifuged at 48,000×g at 4° C. for 10 minutes, resuspended in 25 ml assay buffer (50 mM Tris-HCl, 5 mM MgCl₂, 10 mg/ml protease-free BSA, 0.1 mg/ml STI, and 0.1 mg/ml Pefabloc, pH 7.4) with a Tissue-Tearor (Biospec Products), then centrifuged again at 48,000×g for 10 minutes. The pellets were homogenized for a third time in 15 ml assay buffer using the Tissue-Tearor and again centrifuged at 48,000×g for 10 minutes. The resulting pellet was resuspended in assay buffer at a wet weight concentration of 4 mg/ml.
Ligand Binding Assay. Binding assays were performed in 96-well U-bottom plates. […] The reaction was terminated by rapid filtration through Unfilter-96 GF/C glass fiber filter plates (FilterMate 196 Packard Harvester, PerkinElmer, Shelton, Conn.) pre-soaked in 0.5% polyethylenimine, followed by three washes with 300 μl of cold 50 mM Tris-HCl, pH 7.4. Bound radioactivity was determined using a TopCount microplate scintillation and luminescence counter (Packard Instrument Company, PerkinElmer, Shelton, Conn.). Nonlinear regression analyses of resulting concentration curves were performed using GraphPad Prism (GraphPad Software, Inc., San Diego, Calif.).
Binder SHAEGTFTSDVSSYLEGQAAKEFIAWLVKGR (ends and bridges not checked, Not pegylated; also called S-CLP-1) [S-GLP-1 (SEQ ID NO: 250)] has an IC50 of 53 nM. MQHAEGTFTSDVSSYLEGQAAKEFIAWLVKGR (ends and bridges not checked, Not pegylated) [MQ-GLP1 (SEQ ID NO: 253)] showed an IC50 of 64 nM. Binder MLHAEGTFTSDVSSYLEGQAAKEFIAWLVKGR (ends and bridges not checked, Not pegylated) [ML-GLP1 (SEQ ID NO: 262)] has an IC50 of 160 nM. For MDHAEGTFTSDVSSYLEGQAAKEFIAWLVKGR (Not pegylated) [MD-GLP1 (SEQ ID NO: 261)], the IC50 was 82 nM. In the case of MWHAEGTFTSDVSSYLEGQAAKEFIAWLVKGR (ends and bridges not checked, Not pegylated) [MW-GLP1 (SEQ ID NO: 265)], the IC50 is reported as 79 nM. With MRHAEGTFTSDVSSYLEGQAAKEFIAWLVKGR (ends and bridges not checked, Not pegylated) [MR-GLP1 (SEQ ID NO: 254)] the IC50 was 590 nM. Work on MMHAEGTFTSDVSSYLEGQAAKEFIAWLVKGR (not fully specified; ends and bridges not checked, Not pegylated) [MM-GLP1 (SEQ ID NO: 267)] yielded an IC50 of 100 nM. MHHAEGTFTSDVSSYLEGQAAKEFIAWLVKGR (ends and bridges not checked, Not pegylated) [MH-GLP1 (SEQ ID NO: 257)] gave an IC50 of 350 nM. In the case of MEHAEGTFTSDVSSYLEGQAAKEFIAWLVKGR (Not pegylated) [ME-GLP1 (SEQ ID NO: 264)], the IC50 is reported as 95 nM. For MIHAEGTFTSDVSSYLEGQAAKEFIAWLVKGR (not fully specified; ends and bridges not checked, Not pegylated) [MI-GLP1 (SEQ ID NO: 260)], the IC50 was 75 nM. MYHAEGTFTSDVSSYLEGQAAKEFIAWLVKGR (ends and bridges not checked, Not pegylated) [MY-GLP1 (SEQ ID NO: 259)] was tested, and the IC50 was 57 nM. In the case of MKHAEGTFTSDVSSYLEGQAAKEFIAWLVKGR (not fully specified; ends and bridges not checked, Not pegylated) [MK-GLP1 (SEQ ID NO: 255)], the IC50 is reported as 760 nM. In the case of MNHAEGTFTSDVSSYLEGQAAKEFIAWLVKGR (ends and bridges not checked, Not pegylated) [MN-GLP1 (SEQ ID NO: 263)], the IC50 is reported as 50 nM. MFHAEGTFTSDVSSYLEGQAAKEFIAWLVKGR (ends and bridges not checked, Not pegylated) [MF-GLP1 (SEQ ID NO: 266)] was tested, and the IC50 was 180 nM. MHHHAEGTFTSDVSSYLEGQAAKEFIAWLVKGR (ends and bridges not checked, Not pegylated) [MHH-GLP1 (SEQ ID NO: 258)] was tested, and the IC50 was 350 nM.

Reference: patent publication US20100048468A1 (Amgen, published 2010)
